Results: patent US20240270828A1 (UAB RESEARCH FOUNDATION, published 2024)
Like-named read-outs stand apart in the source and are kept apart here.

What was measured:
SARS-CoV Spike protein [1] = molecular target: T1, SARS-CoV Spike protein (SARS-CoV, UniProt P59594 14-1195)
[2] = molecular target: Spike of live SARS-CoV-2 WT virus (SARS-CoV-2, UniProt P0DTC2 14-1273); assay: cell-based or functional assay
[3] = molecular target: T2, MERS-CoV S2 (Sino Biological, 40070-V08) (MERS-CoV, UniProt K9N5Q8 726-1296); assay: SPR/BLI, method not told apart
T2 sequence: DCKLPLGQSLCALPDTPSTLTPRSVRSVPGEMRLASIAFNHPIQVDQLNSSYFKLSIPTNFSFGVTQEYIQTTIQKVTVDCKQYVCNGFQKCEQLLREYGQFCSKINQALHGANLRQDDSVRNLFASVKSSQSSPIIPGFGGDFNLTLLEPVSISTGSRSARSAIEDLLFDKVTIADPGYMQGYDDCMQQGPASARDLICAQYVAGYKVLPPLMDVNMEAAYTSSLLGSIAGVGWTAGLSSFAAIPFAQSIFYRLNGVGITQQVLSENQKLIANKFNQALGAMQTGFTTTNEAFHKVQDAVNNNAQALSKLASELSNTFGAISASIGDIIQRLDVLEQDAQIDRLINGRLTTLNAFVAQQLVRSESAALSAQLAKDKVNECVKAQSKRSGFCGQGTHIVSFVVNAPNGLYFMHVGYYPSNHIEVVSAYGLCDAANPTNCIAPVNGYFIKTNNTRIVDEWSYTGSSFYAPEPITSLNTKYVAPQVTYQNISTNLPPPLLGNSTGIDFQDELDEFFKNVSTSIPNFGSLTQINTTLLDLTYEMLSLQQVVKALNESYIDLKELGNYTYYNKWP

SARS-CoV Spike protein [4] = molecular target: T1, SARS-CoV Spike protein; assay: SPR/BLI, method not told apart
[5] = molecular target: T3, SARS-CoV-2 S1 (40591-V08H3, Sino Biological) (SARS-CoV-2, UniProt P0DTC2 16-685); assay: ELISA, hmAb at 10 and 1 ug/ml in duplicate; AUC
T3 construct: domain: S1

[6] = molecular target: T4, SARS-CoV-2 S2 (40590-V08B, Sino Biological) (SARS-CoV-2, UniProt P0DTC2 686-1213); assay: ELISA, hmAb at 10 and 1 ug/ml in duplicate; AUC
T4 construct: domain: S2

[7] = molecular target: T5, SARS-CoV-2 S1+S2 (40589-V08B1, Sino Biological) (SARS-CoV-2, UniProt P0DTC2 16-1213); assay: ELISA, hmAb at 10 and 1 ug/ml in duplicate; AUC
[8] = molecular target: T3, SARS-CoV-2 S1 (40591-V08H3, Sino …); assay: ELISA on coated protein, anti-human IgG-HRP; AUC of the OD
[9] = molecular target: T4, SARS-CoV-2 S2 (40590-V08B, Sino …); assay: as above
[10] = molecular target: T5, SARS-CoV-2 S1+S2 (40589-V08B1, Sino …); assay: as above
[11] = molecular target: T6, OC43 S2 (40607-V08B1, Sino Biological) (HCoV-OC43, UniProt P36334 759-1297); assay: ELISA titration of 1249A8 on coated Spike proteins, mean Abs at 450 nm
T6 construct: domain: S2
T6 sequence: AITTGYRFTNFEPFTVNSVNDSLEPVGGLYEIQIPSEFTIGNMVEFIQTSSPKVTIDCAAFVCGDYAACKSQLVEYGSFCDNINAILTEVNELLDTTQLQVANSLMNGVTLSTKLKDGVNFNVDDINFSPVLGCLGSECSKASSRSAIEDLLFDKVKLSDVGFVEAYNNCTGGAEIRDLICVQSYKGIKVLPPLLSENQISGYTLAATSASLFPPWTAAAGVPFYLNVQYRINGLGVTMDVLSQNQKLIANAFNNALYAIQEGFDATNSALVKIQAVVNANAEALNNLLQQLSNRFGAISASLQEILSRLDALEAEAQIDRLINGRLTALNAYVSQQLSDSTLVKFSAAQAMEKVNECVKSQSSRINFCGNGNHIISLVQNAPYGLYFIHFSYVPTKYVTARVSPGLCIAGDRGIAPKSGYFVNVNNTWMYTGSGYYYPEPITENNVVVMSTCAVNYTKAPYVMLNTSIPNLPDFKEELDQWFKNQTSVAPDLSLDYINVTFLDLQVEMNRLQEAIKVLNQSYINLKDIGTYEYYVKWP

[12] = molecular target: T2, MERS-CoV S2 (Sino Biological, 40070-V08); assay: BLI, mAb on anti-human Fc biosensor, MERS Spike protein in solution

B1: 1249A8 (antibody, V domains shown)
VH: QVQLVQSGAEVKKPGASMKVSCKASGFTFTDYYMHWVRQAPRQGLEWMGLINPSGSGTAYAQNFQGRVTLARDTSTSTLYMEMGSLTSDDTAVYYCARMDSSGSYDHWGQGTLVTVSS
VL: ETTLTQSPGTLSLSPGDRATLSCRASQTIRISYLAWYQQKPGQAPRLLVYGPSIRATGIPDRFSARGSGTDFTLTISRLEPEDFAVYYCQHYGSSPPRYTFGQGTKLEIK
With B1 the Kd (SARS-CoV Spike protein [1]) was 3.15 nM, the “Neutralization IC50 (µg/ml), Live Virus WT” value [2] was 1.77 µg/mL and the Kd [3] was 0.58 nM. For the same binder, the Kd (SARS-CoV Spike protein [4]) was 3.2 nM, the “Binding AUC” value [5] was 1.4 and the binding result [5] was “no binding (tested: 10 ug/ml)”. For the same binder, the “Binding AUC” value [6] was 28.2, the “Binding AUC” value [7] was 24.8 and the “Binding AUC” value [8] was 1.4. For the same binder, the “Binding AUC” value [9] was 28.2, the “Binding AUC” value [10] was 24.8 and the binding result [11] was “binds”. The Kd [12] was 0.56 nM.
